Key:
[1] = target: wild-type CfaB, mature form, with N-terminal hexahistidine tag (^wtCfaB, (his)6CfaB) (enterotoxigenic Escherichia coli (ETEC)) (UniProt E3PPC4)
[2] = target: wild-type CfaB, mature form, with N-terminal hexahistidine tag (^wtCfaB, (his)6CfaB) (enterotoxigenic Escherichia coli (ETEC)) (UniProt E3PPC4); assay: pull-down

## wild-type CfaA with C-terminal Strep-tag (^wtCfaA, CfaA(Strep)) (natural protein)
[1]
  kf, fast-phase rate constant of chaperone-assisted refolding of denatured CfaB: 0.54 s⁻¹
[2]
  ratio between CfaA and CfaB (densitometry of the pull-down): 0.6
